According to the Human Domainome abundance scans (Beltran et al. 2025):

B1: E3 ubiquitin-protein ligase NEDD4, residues 836 to 881; numbered along this chain, P46934 (parent)
chain: EIEQGFLPKGWEVRHAPNGRPFFIDHNTKTTTWEDPRLKIPAHLRG

Variants of: B1
Assay: abundance fitness (aPCA) (normalised: wild type 0, dead -1); higher = more abundant; growth selection in yeast, the domain comes from the species named
Details: Homo sapiens

Abundance fitness of substitutions, site by site:
R20: F -0.78, H -0.064, W -0.946, S -0.087, Q 0.137, P -0.857, N -0.271, C -0.278, D -0.212, A 0.016, M -0.052, E -0.035, V -0.105, L -0.223, I -0.257, K 0.16, Y -0.577, T -0.207, G -0.917
I24: N -0.715, H -0.523, S -1.09, L 0.003, F -0.522, A -0.818, G -0.98, T -0.701, E -0.849, Q -0.947, C -0.402, R -0.609, P -0.929, W -0.356, Y 0.137
F6: K 0.117, Y 0.018, M -0.345, R 0.149, S 0.16, H 0.05, C 0.265, L 0.051, I 0.372, A 0.155, P 0.001, Q -0.297, G 0.09, D 0.241, V 0.038, W -0.063, T 0.202
G19: P -0.695, D -0.943, W -0.833, M -0.827, E -0.628, N -0.551, A -0.734, T -1.05, C -0.929, Q -0.632, H -0.496, Y -0.828, L -0.923, K -0.826
H15: K 0.081, D -0.031, M -0.34, W -0.133, R -0.004, P -0.507, L -0.013, N -0.113, Q -0.257, T -0.047, G -0.508, I -0.051, E -0.116, Y -0.147, C 0.166, F -0.074, A -0.095
P8: A -0.766, M -0.692, T -0.432, N -0.611, E -0.594, R -0.648, F -0.341, K 0.223, H 0.162, G -0.625, Q -0.814, W -0.856, I -0.623, V -0.96, D -0.626, L -0.988, C -0.969
R14: Y -0.407, D -0.289, Q -0.121, M -0.525, A -0.156, W -0.458, P -0.407, E -0.539, F -0.272, I -0.556, H -0.47, G -0.114, S -0.297, N -0.783, C -0.07, T -0.562
A16: I -0.193, Y -0.657, Q -0.353, P -0.416, M -0.216, R -0.668, N -0.435, E -0.387, C -0.11, T 0.127, K -0.698, V -0.505, G -0.108, L -0.345
P21: E -0.149, A -0.055, L -0.131, D -0.445, V -0.149, W -0.402, Q -0.058, M -0.218, I 0.033, Y 0.055, T -0.451, C -0.084, F -0.601, N -0.487, S -0.233, R -0.109, K 0.027
E12: V -0.526, W -0.692, T -0.274, N -0.949, A -0.533, F -0.352, S -0.278, L -0.942, K -0.599, P -0.967, R -0.793, M -0.89, H -0.227, Q -0.307, I -0.633, C -0.758, G -0.882
F22: V -0.211, K -0.702, N -0.774, T -0.536, C -0.122, Q -0.239, S -0.797, D -0.35, E -0.393, H -0.844, L -0.151, G -0.712, A -0.688, R -0.745, I -0.168
G10: I -1.17, P -0.829, M -0.854, Y -0.781, V -0.816, F -0.6, K -0.886, C -0.722, N -0.12, L -0.95, D -0.81, T -1, E -0.605, W -0.802, S -0.831, H -0.493, R -0.627
N18: C -0.256, S -0.241, M -0.907, W -0.664, K -0.652, Q -1.06, V -0.83, P -0.255, E -0.232, H -0.718, F -0.75, A -0.69, L -0.696, I -0.976, G -0.063, Y -0.802, R -0.805, T -0.29
F23: Y -0.27, S -0.856, N -0.79, C -0.966, T -0.883, V -0.651, I -0.896, W -0.147, D -0.679, A -0.416, L -0.633, Q -0.824, K -0.47, G -0.566, M -0.751, H -0.656
K9: N -0.112, R -0.205, A -0.124, P -0.211, Q -0.078, G -0.252, W -0.52, H -0.251, L -0.257, S -0.048, F -0.825, E -0.119, M -0.344, Y -0.316, T -0.237, C -0.268
G5: R -0.123, N 0.031, L -0.217, Q -0.299, P -0.26, M -0.175, V -0.171, W -0.105, S -0.068, K 0.015, Y 0.008
D25: I -0.792, C -0.447, E -0.351, N -0.261, G -0.836, F -1.04, Q -0.951, A -0.848, R -0.682, L -0.922, H -0.394, M -1.15
L7: Q -0.38, H -0.543, Y -0.915, N -1.01, S -0.573, R -1.03, E -0.437, A -0.599, F -0.459, T -0.441, M -0.186, I -0.493, G -0.524, K -0.601, P -0.473, C -0.882, W -0.577
P17: C -0.295, L -0.197, V -0.191, Y -0.662, G -0.323, N -0.308, W -0.419, A -0.075, Q -0.585, T -0.298, E 0.016, K -0.115, R -0.178, F -0.447, H -0.276, I -0.012
W11: I -0.459, K -0.409, A -0.79, S -0.424, P -0.817, E -0.326, C -0.418, M -0.563, G -0.575, N -0.106, D -0.539, T -0.792, L -0.648, H -0.761, Q -0.455, F -0.795
V13: H -0.724, R -0.149, N -0.836, S -0.399, P -0.764, G -0.747, F -0.159, T -0.529, Y -0.799, E 0.069, A -0.266, L -0.122, K -0.032, W -0.842, M 0.05, C -0.252, Q -0.135
